# Assay: steady-state kinetics, released Ang I immunoassay
# Conditions: glycan lost; control: fully glycosylated WT AGT
protein,measurement,value
angiotensinogen (AGT): N14Q (protein) parent chain: MAPAGVSLRATILCLLAWAGLAAGDRVYIHPFHLVIHNESTCEQLAKANAGKPKDPTFIPAPIQAKTSPVDEKALQDQLVLVAAKLDTEDKLRAAMVGMLANFLGFRIYGMHSELWGVVHGATVLSPTAVFGTLASLYLGALDHTADRLQAILGVPWKDKNCTSRLDAHKVLSALQAVQGLLVAQGRADSQAQLLLSTVVGVFTAPGLHLKQPFVQGLALYTPVVLPRSLDFTELDVAAEKIDRFMQAVTGWKTGCSLMGASVDSTLAFNTYVHFQGKMKGFSLLAEPQEFWVDNSTSVSVPMLSGMGTFQHWSDIQDNFSVTQVPFTESACLLLIQPHYASDLDKVEGLTFQQNSLNWMKKLSPRTIHLTMPQLVLQGSYDLQDLLAQAELPAILHTELNLQKLSNDRIRVGEVLNSIFFELEADEREPTESTQQLNKPEVLEVTLNRPFLFAVYDQSATALHFLGRVANPLSTA,"other: proteolytic processing, kcat_Km","increases, 0.64 ± 0.03 vs 0.25 ± 0.01, 0.64 ± 0.03 (252%)"
angiotensinogen (AGT): N4 (protein) parent chain: MAPAGVSLRATILCLLAWAGLAAGDRVYIHPFHLVIHNESTCEQLAKANAGKPKDPTFIPAPIQAKTSPVDEKALQDQLVLVAAKLDTEDKLRAAMVGMLANFLGFRIYGMHSELWGVVHGATVLSPTAVFGTLASLYLGALDHTADRLQAILGVPWKDKNCTSRLDAHKVLSALQAVQGLLVAQGRADSQAQLLLSTVVGVFTAPGLHLKQPFVQGLALYTPVVLPRSLDFTELDVAAEKIDRFMQAVTGWKTGCSLMGASVDSTLAFNTYVHFQGKMKGFSLLAEPQEFWVDNSTSVSVPMLSGMGTFQHWSDIQDNFSVTQVPFTESACLLLIQPHYASDLDKVEGLTFQQNSLNWMKKLSPRTIHLTMPQLVLQGSYDLQDLLAQAELPAILHTELNLQKLSNDRIRVGEVLNSIFFELEADEREPTESTQQLNKPEVLEVTLNRPFLFAVYDQSATALHFLGRVANPLSTA,"other: proteolytic processing, kcat_Km","increases, 0.65 ± 0.08 vs 0.25 ± 0.01, 0.65 ± 0.08 (255%)"

# From publication PMC6378967
